Data as given in US20070154481A1 (UCB, published 2007).
Changes are numbered by the printed parent chain. Values joined by “and” are separate entries in the source; they are usually repeats but may differ in a detail not shown here. Equal entries are not always repeated.

Legend:
[1] = molecular target: Human mammalian-derived IL-6 (human, UniProt P05231 30-212); assay: cell-based or functional assay
[2] = molecular target: T1, Recombinant Rhesus monkey IL-6 (rhesus monkey, UniProt P51494 28-212, limits assumed); assay: cell-based or functional assay
T1 sequence (looked up): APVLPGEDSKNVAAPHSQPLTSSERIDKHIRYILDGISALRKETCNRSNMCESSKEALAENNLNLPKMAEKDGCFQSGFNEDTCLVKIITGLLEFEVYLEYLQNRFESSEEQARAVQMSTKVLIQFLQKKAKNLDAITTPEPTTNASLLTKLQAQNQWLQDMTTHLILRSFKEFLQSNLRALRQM

[3] = molecular target: T2, Recombinant human IL-6 (human, UniProt P05231 29-212); assay: cell-based or functional assay
[4] = molecular target: T3, Recombinant cynomologous monkey IL-6 (cynomolgus monkey, UniProt P79341 28-212, limits assumed); assay: cell-based or functional assay
T3 sequence (looked up): T1 sequence (looked up) with N11D, N178S

[5] = molecular target: T2, Recombinant human IL-6; assay: BIAcore 3000; IgG4 captured by anti-human Fc F(ab')2, human IL-6 as analyte
Method: (§1) BIA (Biamolecular Interaction Analysis) was performed using a BIAcore 3000 (BIAcore AB). Affinipure F(ab′)₂ Fragment goat anti-human IgG, Fc fragment specific (Jackson ImmunoResearch) was immobilised on a CM5 Sensor Chip via amine coupling chemistry to a capture level of ≈5000 response units (RUs). HBS-EP buffer (10 mM HEPES pH 7.4, 0.15 M NaCl, 3 mM EDTA, 0.005% Surfactant P20, BIAcore AB) was used as the running buffer with a flow rate of 10 μl/min. A 10 μl injection of CA030₋240.g1 at 4 μg/mL was used for capture by the immobilised anti-human IgG-Fc. Human IL-6 was titrated over the captured CAO30₋240.g1 at various concentrations at a flow rate of 30 μL/min. The surface was regenerated by a 10 μL injection of 40 mM HCl, followed by a 5 μL injection of 5 mM NaOH at a flowrate of 10 μL/min.
(§2) Background subtraction binding curves were analysed using the BIAevaluation software (version 3.2) following standard procedures. Kinetic parameters were determined from the fitting algorithm.

[6] = molecular target: T2, Recombinant human IL-6; assay: BIAcore 3000; mean of the two determinations of Table 1.1
Method: as §1, §2
One batch of CA030₋240.g1 was used in this study.

B1: CA030-00240.g1 whole IgG4 (antibody, V domains shown)
VH: EVQLVESGGGLVQPGGSLRLSCAASGFNFNDYFMNWVRQAPGKGLEWVAQMRNKNYQYGTYYAESLEGRFTISRDDSKNSLYLQMNSLKTEDTAVYYCARESYYGFTSYWGQGTLVTVSS
VL: DIQMTQSPSSLSASVGDRVTITCQASQDIGISLSWYQQKPGKAPKLLIYNANNLADGVPSRFSGSGSGTDFTLTISSLQPEDFATYYCLQHNSAPYTFGQGTKLEIKR
notes: Made in CHO cells; also called CA030-240.g1; CA030_240.g1
- ND50, inhibition of IL-6 induced proliferation of T1165 cells [1]: 3.6 ng/ml and 23.8 pM
- ND50, inhibition of IL-6 induced proliferation of T1165 cells [2]: 2.2 ng/ml and 14.5 pM
- ND50, inhibition of IL-6 induced proliferation of T1165 cells [3]: 1.1 ng/ml and 7.26 pM
- ND50, inhibition of IL-6 induced proliferation of T1165 cells [4]: 5.4 ng/ml and 35.6 pM
- Kd [5]: 10.5 pM and 9.02 pM
- koff [5]: 7.68e-06 s⁻¹
- kon [5]: 731000 M⁻¹ s⁻¹ and 852000 M⁻¹ s⁻¹
- Kd [6]: 9.76 pM
